This note sets out measurements from US20180155451A1 (published 2018).

As usually defined, the Kd is the concentration at which binding is half-saturated.

The target of experiment [1] is T1, FcgRIIa type R extracellular domain with C-terminal His tag (human, UniProt P12318 34-217).
T1 construct: extracellular domain; also called FcgRIIaR; FcgRIIa R; not shown: His tag at the C terminus
T1 sequence (looked up): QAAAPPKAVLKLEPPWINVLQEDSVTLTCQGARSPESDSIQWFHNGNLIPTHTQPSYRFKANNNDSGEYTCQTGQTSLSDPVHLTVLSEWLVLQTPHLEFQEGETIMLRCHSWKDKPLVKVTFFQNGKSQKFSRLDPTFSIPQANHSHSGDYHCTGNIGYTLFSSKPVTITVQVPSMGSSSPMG
In words: SPR (Biacore); KD of IL6R-B3/IL6R-L for this FcgR divided by KD of the sample. As to the method:
(§1) Analysis of interaction between obj ective antibody and the FcγR was carried out using Biacore T100 (GE Healthcare), Biacore T200, Biacore A100, and Biacore 4000. HBS-EP+ (GE Healthcare) was used as the running buffer, and the measurement temperature was set to 25° C. Chips produced by immobilizing the antigen peptide by the amine coupling method to a Series S sensor Chip CM5 (GE Healthcare), chips produced by allowing preliminarily biotinylated antigen peptides to interact with and immobilize onto a Series S Sensor Chip SA (certified) (GE Healthcare), chips produced by immobilizing Protein L (ACTIGEN, BioVision) to Series S Sencor Chip CM5 (GE Healthcare), or chips produced by immobilizing Protein A/G (Thermo Scientific) to Series S Sencor Chip CM5 (GE Healthcare) were used. Antibodies of interest were captured onto these chips, and allowed to interact to each FcγR diluted with running buffer. To regenerate and repeatedly use the chip, the antibodies captured onto the chip were washed off by reacting 10 mM glycine-HCl, pH 1.5.

Experiment [2] has as its target T2, FcgRIIa type H extracellular domain with C-terminal His tag (human, UniProt P12318 34-217).
T2 construct: extracellular domain; also called FcgRIIaH; FcgRIIa H; not shown: His tag at the C terminus
T2 sequence (looked up): T1 sequence (looked up) with R134H
The description is as above. As to the method: as §1

Experiment [3] concerns the target T3, FcgRIIb extracellular domain with C-terminal His tag (human, UniProt P31994 43-217).
T3 construct: extracellular domain; Expressed in FreeStyle293 cells; also called FcγRIIb; 2b; not shown: His tag at the C terminus
T3 sequence (looked up): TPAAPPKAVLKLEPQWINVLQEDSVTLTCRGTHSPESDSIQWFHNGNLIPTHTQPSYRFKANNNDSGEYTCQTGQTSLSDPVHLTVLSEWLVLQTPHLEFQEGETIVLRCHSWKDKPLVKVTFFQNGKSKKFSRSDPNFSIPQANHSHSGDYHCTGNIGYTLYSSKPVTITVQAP
The experiment is described as above. As to the method:
as §1

Experiment [4] addresses T2, FcgRIIa type H extracellular domain …. In words: SPR (Biacore), antibody captured on chip, soluble FcgR as analyte; too weak for kinetics, KD from steady-state 1:1 equation. As to the method:
(§2) KD can be calculated by substituting the values of Rmax, RI, and C into this equation. The values of RI and C can be determined from the sensorgram of the measurement results and measurement conditions. Rmax was calculated according to the following method.
(In general: Surface plasmon resonance follows binding to a sensor surface in real time, without labels.)

In experiment [5] the target is T4, FcgRIIIa type V extracellular domain with C-terminal His tag (human, UniProt P08637 17-208).
T4 construct: extracellular domain; also called FcgRIIIaV; FcgRIIIa V; not shown: His tag at the C terminus
T4 sequence (P08637 17-208 F176V): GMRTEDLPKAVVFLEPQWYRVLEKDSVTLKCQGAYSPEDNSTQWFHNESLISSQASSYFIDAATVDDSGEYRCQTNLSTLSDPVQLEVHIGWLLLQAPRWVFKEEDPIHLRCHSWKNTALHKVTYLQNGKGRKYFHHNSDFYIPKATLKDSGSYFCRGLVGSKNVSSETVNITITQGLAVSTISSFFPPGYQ
The experiment is described as above. As to the method:
as §2

Experiment [6] concerns the target T5, FcgRIa extracellular domain with C-terminal His tag (human, UniProt P12314 16-292).
T5 construct: extracellular domain; Expressed in FreeStyle293 cells; also called FcγRIa; not shown: His tag at the C terminus
In words: SPR (Biacore), antibody captured on chip, soluble FcgR as analyte, kinetic 1:1 fit. As to the method: (§3) The variants were assessed for the binding activity to FcgR Ia, FcgR IIaR, FcgR IIaH, and FcgRIIb according to the method described in Reference Example 8.
as §1

For experiment [7], the target named is T1, FcgRIIa type R extracellular domain …. Described as above. As to the method: as §3, §1
Experiment [8] concerns the target T3, FcgRIIb extracellular domain with …. Described as above. As to the method:
as §3, §1

The target is the same in experiment [9]. In words: SPR (Biacore); KD of the sample for FcgRIIaR divided by its KD for FcgRIIb (selectivity for FcgRIIb). As to the method:
as §1

The target in experiment [10] is T2, FcgRIIa type H extracellular domain …. In words: SPR (Biacore), antibody captured on chip, soluble FcgR as analyte, kinetic 1:1 fit. As to the method:
as §3, §1

The target in another experiment is T6, Protein A (UniProt P38507 37-327).
T6 construct: bought resin; construct not described; also called rProtein A Sepharose Fast Flow
In words: rProtein A Sepharose column, stepwise pH elution; fractions analysed by cation exchange chromatography.

Residue numbers refer to the chain shown, from its start. Numbers in names are those of the source.

T5 sequence (P12314 16-292): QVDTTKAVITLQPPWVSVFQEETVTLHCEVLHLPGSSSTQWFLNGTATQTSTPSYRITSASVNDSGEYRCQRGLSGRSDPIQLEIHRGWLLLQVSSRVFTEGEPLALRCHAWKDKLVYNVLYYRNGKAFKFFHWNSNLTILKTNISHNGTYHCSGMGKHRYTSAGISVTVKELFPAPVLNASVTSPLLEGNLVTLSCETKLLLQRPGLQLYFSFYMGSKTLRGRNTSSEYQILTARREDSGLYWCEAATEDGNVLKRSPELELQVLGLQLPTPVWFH

B1: IL6R-BP256/IL6R-L (antibody, human IgG1, kappa)
heavy: QVQLQESGPGLVKPSETLSLTCAVSGHSISHDHAWSWVRQPPGEGLEWIGFISYSGITNYNPSLQGRVTISRDNSKNTLYLQMNSLRAEDTAVYYCARSLARTTAMDYWGEGTLVTVSSASTKGPSVFPLAPSSKSTSGGTAALGCLVKDYFPEPVTVSWNSGALTSGVHTFPAVLQSSGLYSLSSVVTVPSSSLGTQTYICNVNHKPSNTKVDKKVEPKSCDKTHTCPPCPAPDLLGDDDVFLFPPKPKDTLMISRTPEVTCVVVDVSDEDGEVKFNWYVDGVEVHNAKTKPREEQYNSTYRVVSVLTVLHQDWLNGKEYKCKVSNKALPRPIEKTISKAKGQPREPQVYTLPPSRDELTKNQVSLTCLVKGFYPSDIAVEWESNGQPENNYKTTPPVLDSDGSFFLYSKLTVDKSRWQQGNVFSCSVMHEALHNHYTQESLSLSP
light: not shown
notes: Homodimerized antibody; IL6R-BP256 is IL6R-BP208 with S239D
For the molecule B1, the “Relative KD” value was 1.5 ratio in [1], 0 ratio in experiment [2] and 35.7 ratio in experiment [3]. The Kd amounted to 21000 nM in experiment [4]; 11000 nM in experiment [5]; 2 nM in experiment [6]; 730 nM in [7]; 87 nM in experiment [8]. Also, in [9], the “KD(IIaR)/KD(IIb)” value amounted to 8.4 ratio.

B2: IL6R-AP002/IL6R-BP256/IL6R-L (antibody, human IgG1, kappa)
heavy 1: B1 heavy with D241S, D358K, H437R, E441K
heavy 2: B1 heavy
light: not shown
notes: Heterodimerized antibody with S239D in one H chain only; IL6R-AP002 is IL6R-A5 (IL6R-G1d with D356K and H435R) with E233D, G237D, P238D, H268D, P271G and A330R
Consider B2, for which the “Relative KD” value in [1] was determined as 7.7 ratio; in [2] it was 0.2 ratio; in experiment [3], 752 ratio. In addition, the dissociation constant (Kd) in [5] was 17000 nM; in experiment [6], 3.6 nM; in [7], 140 nM; in experiment [10], 4200 nM; in [8] it was 4.1 nM. In addition, the “KD(IIaR)/KD(IIb)” value in [9] turned out to be 34.3 ratio.

B3: IL6R-BP257/IL6R-L (antibody, human IgG1, kappa)
heavy: B1 heavy with D241E
light: not shown
notes: Homodimerized antibody; IL6R-BP257 is IL6R-BP208 with S239E
Consider B3, for which the “Relative KD” value in experiment [1] was found to be 0.9 ratio; in [2], 0 ratio; in experiment [3] it was 7.2 ratio. In addition, the dissociation constant (Kd) was 39000 nM in experiment [4]; 19000 nM in experiment [5]; 0.31 nM in experiment [6]; 1300 nM in [7]; 430 nM in experiment [8]. For the same molecule, the “KD(IIaR)/KD(IIb)” value in [9] stood at 3 ratio.

B4: IL6R-AP002/IL6R-BP257/IL6R-L (antibody, human IgG1, kappa)
heavy 1: B1 heavy with D241S, D358K, H437R, E441K
heavy 2: B1 heavy with D241E
light: not shown
notes: Heterodimerized antibody with S239E in one H chain only
B4: the “Relative KD” value in experiment [1] was 8.3 ratio; in experiment [2], 0.2 ratio; in [3] it was 657 ratio. Moreover, the Kd turned out to be 14000 nM in experiment [5]; 1.9 nM in experiment [6]; 130 nM in [7]; 4900 nM in experiment [10]; 4.7 nM in experiment [8]. For the same molecule, in experiment [9], the “KD(IIaR)/KD(IIb)” value is 27.7 ratio.

B5: J142-z72/L180-k (antibody, human IgG4 S228P, kappa)
heavy: QVQLVQSGSELKKPGASVKVSCKASGYTFTDNNMDWVRQAPGQGLEWMGDINTRSGGSIYNEEFQDRVTMTIDKSTGTAYMELSSLRSEDTAVYYCARRRSYGYYHDEWGEGTLVTVSSASTKGPSVFPLAPCSRSTSESTAALGCLVKDYFPEPVTVSWNSGALTSGVHTFPAVLQSSGLYSLSSVVTVPSSSLGTKTYTCNVDHKPSNTKVDKRVESKYGPPCPPCPAPEFLGGPSVFLFPPKPKDTLMISRTPEVTCVVVDVSQEDPEVQFNWYVDGVEVHNAKTKPREEQFNSTYRVVSVLTVLHQDWLNGKEYKCKVSNKGLPSSIEKTISKAKGQPREPQVYTLPPSQEEMTKNQVSLTCLVKGFYPSDIAVEWESNGQPENNYKTTPPVLDSDGSFFLYSRLTVDKSRWQEGNVFSCSVMHEALHNRFTQKSLSLSP
light: DIQMTQSPSSLSASVGDRVTITCKASRNIERNLAWYQQKPGQAPELLIYSASRKESGVPDRFSGSRYGTDFTLTISSLQPEDLATYYCQQYYSPPLTFGGGTKVEIKRTVAAPSVFIFPPSDEQLKSGTASVVCLLNNFYPREAKVQWKVDNALQSGNSQESVTEQDSKDSTYSLSSTLTLSKADYEKHKVYACEVTHQGLSSPVTKSFNRGEC
notes: also called homomeric antibody against FX
Consider B5, for which the binding result with Protein A is “no binding”.

B6: J300-z107/L210-k (antibody, human IgG4 S228P, kappa)
heavy: QVQLVQSGSELKKPGASVKVSCKASGYTFTDNNMDWVRQAPGQGLEWMGDINTRSGGSIYNEEFQDRVIMTVDKSTDTAYMELSSLRSEDTAVYHCARRKSYGYYLDEWGEGTLVTVSSASTKGPSVFPLAPCSRSTSESTAALGCLVKDYFPEPVTVSWNSGALTSGVHTFPAVLQSSGLYSLSSVVTVPSSSLGTQTYTCNVDHKPSNTKVDKRVESKYGPPCPPCPAPEFLGGPSVFLFPPKPKDTLMISRTPEVTCVVVDVSQEDPEVQFNWYVDGVEVHNAKTKPREEQYNSTYRVVSVLTVLHQDWLNGKEYKCKVSNKGLPSSIEKTISKAKGQPREPQVYTLPPSQEEMTKNQVSLTCLVKGFYPSDIAVEWESNGQPENNYKTTPPVLDSDGSFFLYSKLTVDKSRWQEGNVFSCSVMHEALHNRYTQESLSLSP
light: B5 light with L83I, Y92S
notes: z107 carries H435R; also called homomeric antibody against FX
Regarding B6, the binding result with Protein A is on record as “no binding”.

B7: J142-z73/L180-k (antibody, human IgG4 S228P, kappa)
heavy: B5 heavy with K438E
light: B5 light
notes: as for B5
In the case of B7, the binding result in the experiment with Protein A is listed as “no binding”.
